Laboratory results published in patent US20030108992A1.

How the values were obtained:
Fas 1-210:YFP (human) = Fas 1-210:YFP (human) (UniProt P25445); assay: CFP dequenching after YFP photobleaching, fluorescence microscope
p60 TNFR (endogenous) = p60 TNFR (endogenous) (UniProt P19438); assay: cell-based or functional assay
p60ΔCD-HA [1] = molecular target: p60ΔCD-HA (UniProt P19438); assay: flow cytometry of transfected cells; normalized against HA staining
p60ΔCD-HA K19E [2] = molecular target: p60ΔCD-HA K19E (UniProt P19438); assay: as above
p60ΔCD-HA T61A [3] = molecular target: p60ΔCD-HA T61A (UniProt P19438); assay: as above
p60ΔCD-HA KY19/20AA [4] = molecular target: p60ΔCD-HA KY19/20AA (UniProt P19438); assay: as above
p60ΔCD-HA W108T [5] = molecular target: p60ΔCD-HA W108T (UniProt P19438); assay: as above
p60ΔCD-HA DT49/50AA [6] = molecular target: p60ΔCD-HA DT49/50AA (UniProt P19438); assay: as above
p60ΔCD-HA N66F [7] = molecular target: p60ΔCD-HA N66F (UniProt P19438); assay: as above
p60ΔCD-HA L112E [8] = molecular target: p60ΔCD-HA L112E (UniProt P19438); assay: as above
p60ΔCD-HA K32A [9] = molecular target: p60ΔCD-HA K32A (UniProt P19438); assay: as above
p60ΔCD-HA R77A [10] = molecular target: p60ΔCD-HA R77A (UniProt P19438); assay: as above
p60 55-211 [11] = molecular target: p60 55-211 (UniProt P19438); assay: as above
p60ΔCD-HA Q24A [12] = molecular target: p60ΔCD-HA Q24A (UniProt P19438); assay: as above
p60ΔCD-HA E57A [13] = molecular target: p60ΔCD-HA E57A (UniProt P19438); assay: as above
p60ΔCD-HA [14] = molecular target: p60ΔCD-HA (UniProt P19438); assay: flow cytometry of transfected cells; % MAB225 positive / % HA positive
p60ΔCD-HA K19E [15] = molecular target: p60ΔCD-HA K19E (UniProt P19438); assay: as above
p60ΔCD-HA T61A [16] = molecular target: p60ΔCD-HA T61A (UniProt P19438); assay: as above
p60ΔCD-HA KY19/20AA [17] = molecular target: p60ΔCD-HA KY19/20AA (UniProt P19438); assay: as above
p60ΔCD-HA W108T [18] = molecular target: p60ΔCD-HA W108T (UniProt P19438); assay: as above
p60ΔCD-HA DT49/50AA [19] = molecular target: p60ΔCD-HA DT49/50AA (UniProt P19438); assay: as above
p60ΔCD-HA N66F [20] = molecular target: p60ΔCD-HA N66F (UniProt P19438); assay: as above
p60ΔCD-HA L112E [21] = molecular target: p60ΔCD-HA L112E (UniProt P19438); assay: as above
p60ΔCD-HA K32A [22] = molecular target: p60ΔCD-HA K32A (UniProt P19438); assay: as above
p60ΔCD-HA R77A [23] = molecular target: p60ΔCD-HA R77A (UniProt P19438); assay: as above
p60 55-211 [24] = molecular target: p60 55-211 (UniProt P19438); assay: as above
p60ΔCD-HA Q24A [25] = molecular target: p60ΔCD-HA Q24A (UniProt P19438); assay: as above
p60ΔCD-HA E57A [26] = molecular target: p60ΔCD-HA E57A (UniProt P19438); assay: as above

“Fas 1-210:CFP (from UniProt P25445 17-226) (receptor)” gave an FRET efficiency (Fas 1-210:YFP (human)) of 16%.

For “p60 55-211 (from UniProt P19438 55-211) (receptor)”, the DOMINANT … (protection against TNF-induced death) (p60 TNFR (endogenous)) was under 5 % protection.

“p60-specific monoclonal antibody clone 4.12 (Zymed)” showed a clone 4.12 staining normalized to HA staining (ratio, p60ΔCD set at 1) (p60ΔCD-HA [1]) of 1, a clone 4.12 staining normalized to HA staining (ratio, p60ΔCD set at 1) (p60ΔCD-HA K19E [2]) of 1.07 and a clone 4.12 staining normalized to HA staining (ratio, p60ΔCD set at 1) (p60ΔCD-HA T61A [3]) of 1.28. The clone 4.12 staining normalized to HA staining (ratio, p60ΔCD set at 1) (p60ΔCD-HA KY19/20AA [4]) was 0.14, the clone 4.12 staining normalized to HA staining (ratio, p60ΔCD set at 1) (p60ΔCD-HA W108T [5]) was 1.11 and the clone 4.12 staining normalized to HA staining (ratio, p60ΔCD set at 1) (p60ΔCD-HA DT49/50AA [6]) was 0.96. The clone 4.12 staining normalized to HA staining (ratio, p60ΔCD set at 1) (p60ΔCD-HA N66F [7]) was 0.04, the clone 4.12 staining normalized to HA staining (ratio, p60ΔCD set at 1) (p60ΔCD-HA L112E [8]) was 1.27 and the clone 4.12 staining normalized to HA staining (ratio, p60ΔCD set at 1) (p60ΔCD-HA K32A [9]) was 0.01. For the same substance, the clone 4.12 staining normalized to HA staining (ratio, p60ΔCD set at 1) (p60ΔCD-HA R77A [10]) was 0.99, the clone 4.12 staining normalized to HA staining (ratio, p60ΔCD set at 1) (p60 55-211 [11]) was 0.02 and the clone 4.12 staining normalized to HA staining (ratio, p60ΔCD set at 1) (p60ΔCD-HA Q24A [12]) was 0.97. The clone 4.12 staining normalized to HA staining (ratio, p60ΔCD set at 1) (p60ΔCD-HA E57A [13]) was 0.04.

“p60-specific monoclonal antibody clone MAB225 (R&D Systems)” showed an MAB225 staining normalized to HA staining (ratio, p60ΔCD set at 1) (p60ΔCD-HA [14]) of 1, an MAB225 staining normalized to HA staining (ratio, p60ΔCD set at 1) (p60ΔCD-HA K19E [15]) of 1.05 and an MAB225 staining normalized to HA staining (ratio, p60ΔCD set at 1) (p60ΔCD-HA T61A [16]) of 1.42. For the same substance, the MAB225 staining normalized to HA staining (ratio, p60ΔCD set at 1) (p60ΔCD-HA KY19/20AA [17]) was 0.59, the MAB225 staining normalized to HA staining (ratio, p60ΔCD set at 1) (p60ΔCD-HA W108T [18]) was 1.32 and the MAB225 staining normalized to HA staining (ratio, p60ΔCD set at 1) (p60ΔCD-HA DT49/50AA [19]) was 1.16. It also gave an MAB225 staining normalized to HA staining (ratio, p60ΔCD set at 1) (p60ΔCD-HA N66F [20]) of 0.67, an MAB225 staining normalized to HA staining (ratio, p60ΔCD set at 1) (p60ΔCD-HA L112E [21]) of 1.31 and an MAB225 staining normalized to HA staining (ratio, p60ΔCD set at 1) (p60ΔCD-HA K32A [22]) of 0.36. The MAB225 staining normalized to HA staining (ratio, p60ΔCD set at 1) (p60ΔCD-HA R77A [23]) was 1.06, the MAB225 staining normalized to HA staining (ratio, p60ΔCD set at 1) (p60 55-211 [24]) was 0.87 and the MAB225 staining normalized to HA staining (ratio, p60ΔCD set at 1) (p60ΔCD-HA Q24A [25]) was 1.06. It also gave an MAB225 staining normalized to HA staining (ratio, p60ΔCD set at 1) (p60ΔCD-HA E57A [26]) of 1.68.

“p60ΔCD-HA (from UniProt P19438 30-240) (receptor)” was tested, and the DOMINANT … (protection against TNF-induced death) (% of p60ΔCD wild type) (p60 TNFR (endogenous)) was 50.

Substance “p60ΔCD-HA DT49/50AA (from UniProt P19438 30-240) (receptor)” has a DOMINANT … (protection against TNF-induced death) (% of p60ΔCD wild type) (p60 TNFR (endogenous)) of 50.

Substance “p60ΔCD-HA E57A (from UniProt P19438 30-240) (receptor)” has a DOMINANT … (protection against TNF-induced death) (% of p60ΔCD wild type) (p60 TNFR (endogenous)) of 50.

“p60ΔCD-HA K19E (from UniProt P19438 30-240) (receptor)” gave a DOMINANT … (protection against TNF-induced death) (% of p60ΔCD wild type) (p60 TNFR (endogenous)) of 50.

“p60ΔCD-HA K32A (from UniProt P19438 30-240) (receptor)” gave a DOMINANT … (protection against TNF-induced death) (p60 TNFR (endogenous)) of under 5 % protection.

Work on “p60ΔCD-HA KY19/20AA (from UniProt P19438 30-240) (receptor)” yielded a DOMINANT … (protection against TNF-induced death) (p60 TNFR (endogenous)) of under 5 % protection.

“p60ΔCD-HA L112E (from UniProt P19438 30-240) (receptor)” was tested, and the DOMINANT … (protection against TNF-induced death) (% of p60ΔCD wild type) (p60 TNFR (endogenous)) was 50.

“p60ΔCD-HA N66F (from UniProt P19438 30-240) (receptor)” was tested, and the DOMINANT … (protection against TNF-induced death) (% of p60ΔCD wild type) (p60 TNFR (endogenous)) was 50.

Substance “p60ΔCD-HA Q24A (from UniProt P19438 30-240) (receptor)” has a DOMINANT … (protection against TNF-induced death) (% of p60ΔCD wild type) (p60 TNFR (endogenous)) of 50.

“p60ΔCD-HA R77A (from UniProt P19438 30-240) (receptor)” gave a DOMINANT … (protection against TNF-induced death) (% of p60ΔCD wild type) (p60 TNFR (endogenous)) of 50.

“p60ΔCD-HA T61A (from UniProt P19438 30-240) (receptor)” showed a DOMINANT … (protection against TNF-induced death) (% of p60ΔCD wild type) (p60 TNFR (endogenous)) of 50.

“p60ΔCD-HA W108T (from UniProt P19438 30-240) (receptor)” showed a DOMINANT … (protection against TNF-induced death) (% of p60ΔCD wild type) (p60 TNFR (endogenous)) of 50.
